Experiment [1] deals with human IL-2Rβγ heterodimeric Fc fusion (knobs-into-holes), biotinylated (human) (UniProt P14784). Nature of the experiment: SPR; Biacore T200; biotinylated IL2Rβγ-Fc heterodimer immobilised on streptavidin chips; 2-fold dilution series (1.2–300 nM) of IgG-(IL-2)2 injected 2 min, dissociation up to 10 min; global fit, 1:1 interaction model despite bivalent binding: apparent KD. For orientation: Surface plasmon resonance follows binding to a sensor surface in real time, without labels.

The target in experiment [2] is murine IL-2Rβγ heterodimeric Fc fusion (knobs-into-holes), biotinylated (murine) (UniProt P16297). The description is as above.
In experiment [3] the target is cynomolgus IL-2Rβγ heterodimeric Fc fusion (knobs-into-holes), biotinylated (cynomolgus) (UniProt Q38J85). Described as above.
Experiment [4] concerns the target human IL-2Rβγ heterodimeric Fc fusion (knobs-into-holes), biotinylated (human) (UniProt P14784).
For experiment [5], the target named is cynomolgus IL-2Rβγ heterodimeric Fc fusion (knobs-into-holes), biotinylated (cynomolgus) (UniProt Q38J85).
The target in experiment [6] is human IL-2Rβγ heterodimeric Fc fusion (knobs-into-holes), biotinylated (human) (UniProt P14784). Nature of the experiment: SPR; Biacore T200; biotinylated IL2Rβγ-Fc heterodimer immobilised on streptavidin chips; 2-fold dilution series (1.2–300 nM) of IgG-IL-2 injected 2 min, dissociation up to 10 min; global fit, 1:1 interaction model.
Experiment [7] concerns the target murine IL-2Rβγ heterodimeric Fc fusion (knobs-into-holes), biotinylated (murine) (UniProt P16297). Described as above.
In experiment [8] the target is cynomolgus IL-2Rβγ heterodimeric Fc fusion (knobs-into-holes), biotinylated (cynomolgus) (UniProt Q38J85). The experiment is described as above.

We go through two substances from PMC4298360.

Sequence of IgG-IL-2 (monovalent fusion of wild-type human IL-2 to a non-targeted, effector-silent human IgG1) (P60568 21-153 limits assumed): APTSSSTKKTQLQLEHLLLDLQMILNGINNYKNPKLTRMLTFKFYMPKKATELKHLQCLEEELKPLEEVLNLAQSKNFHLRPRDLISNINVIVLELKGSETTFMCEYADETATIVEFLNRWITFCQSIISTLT
Sequence of IgG-(IL-2)2 (bivalent fusion of two wild-type human IL-2 to a non-targeted, effector-silent human IgG1) (P60568 21-153 limits assumed): as above
Sequence of human IL-2Rβγ heterodimeric Fc fusion (knobs-into-holes), biotinylated (human) (P14784 27-240, chain 1 of 2): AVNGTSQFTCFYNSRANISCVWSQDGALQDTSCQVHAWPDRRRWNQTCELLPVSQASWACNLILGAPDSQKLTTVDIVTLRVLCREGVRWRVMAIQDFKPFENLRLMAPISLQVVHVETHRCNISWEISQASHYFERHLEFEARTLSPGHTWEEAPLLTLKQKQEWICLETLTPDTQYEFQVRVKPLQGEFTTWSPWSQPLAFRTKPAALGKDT
Sequence of human IL-2Rβγ heterodimeric Fc fusion (knobs-into-holes), biotinylated (human) (P31785 23-262, chain 2 of 2, further chain): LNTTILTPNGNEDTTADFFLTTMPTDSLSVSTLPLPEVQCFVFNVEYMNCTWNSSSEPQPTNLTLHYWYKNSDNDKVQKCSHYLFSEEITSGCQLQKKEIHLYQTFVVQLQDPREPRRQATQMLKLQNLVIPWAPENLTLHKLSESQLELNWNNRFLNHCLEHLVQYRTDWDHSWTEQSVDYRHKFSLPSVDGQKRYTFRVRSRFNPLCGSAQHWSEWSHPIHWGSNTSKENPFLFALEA
Sequence of murine IL-2Rβγ heterodimeric Fc fusion (knobs-into-holes), biotinylated (murine) (P16297 27-240, chain 1 of 2): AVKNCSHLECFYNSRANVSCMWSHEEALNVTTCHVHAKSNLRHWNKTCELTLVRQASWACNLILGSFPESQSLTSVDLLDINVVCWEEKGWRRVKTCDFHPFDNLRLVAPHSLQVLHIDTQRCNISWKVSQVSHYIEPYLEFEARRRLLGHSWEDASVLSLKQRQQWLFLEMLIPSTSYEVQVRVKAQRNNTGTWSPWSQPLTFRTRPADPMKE
Sequence of murine IL-2Rβγ heterodimeric Fc fusion (knobs-into-holes), biotinylated (murine) (P34902 23-263, chain 2 of 2, further chain): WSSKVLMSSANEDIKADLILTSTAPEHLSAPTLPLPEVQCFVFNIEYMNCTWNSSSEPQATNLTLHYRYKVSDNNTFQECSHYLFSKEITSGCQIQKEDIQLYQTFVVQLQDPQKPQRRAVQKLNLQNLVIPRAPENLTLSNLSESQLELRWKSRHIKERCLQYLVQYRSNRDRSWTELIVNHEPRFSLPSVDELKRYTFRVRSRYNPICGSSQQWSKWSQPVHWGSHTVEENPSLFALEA

Take “IgG-(IL-2)2 (bivalent fusion of two wild-type human IL-2 to a non-targeted, effector-silent human IgG1) (from UniProt P60568 21-153)”: the results for the Kd in experiment [1], in experiment [2] and in experiment [3] were 0.003 nM, 0.04 nM and 0.04 nM, respectively. The same substance registered an ED50 of pSTAT5a induction in human Tregs in whole blood (30 min, 37 °C); the receptor meant is the IL-2 receptor on the cells in experiment [4] of 0.3 pM. This substance returned an ED50 of pSTAT5a induction in cynomolgus Tregs in whole blood (30 min, 37 °C); the receptor meant is the IL-2 receptor on the cells in experiment [5] of 0.1 pM.

On to “IgG-IL-2 (monovalent fusion of wild-type human IL-2 to a non-targeted, effector-silent human IgG1) (from UniProt P60568 21-153)”, for which the Kd in experiment [6] was 0.04 nM; in experiment [7], 0.75 nM; in experiment [8], 0.18 nM.
